Reference: the supplement of paper PMC9876800

Test system: peptide library, one residue held at a place counted from the S/T acceptor
Assay: relative phosphorylation of the sub-library (ratio to the mean residue at this position); higher = residue favoured
Method in brief: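 Relative sub-library phosphorylation, a ratio to the mean residue at that position, was obtained by phosphorimaging and densitometry of spots on streptavidin membranes. Before capture, purified recombinant kinases were incubated for 90 min under kinase-specific conditions with 50 μM biotinylated degenerate peptide sub-libraries and 50 μM ATP spiked with γ-32P-ATP. Each sub-library fixed one residue at one position around a central Ser/Thr.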

Sequence of DAPK2, construct: Full length, human (Q9UIK4 whole entry, looked up): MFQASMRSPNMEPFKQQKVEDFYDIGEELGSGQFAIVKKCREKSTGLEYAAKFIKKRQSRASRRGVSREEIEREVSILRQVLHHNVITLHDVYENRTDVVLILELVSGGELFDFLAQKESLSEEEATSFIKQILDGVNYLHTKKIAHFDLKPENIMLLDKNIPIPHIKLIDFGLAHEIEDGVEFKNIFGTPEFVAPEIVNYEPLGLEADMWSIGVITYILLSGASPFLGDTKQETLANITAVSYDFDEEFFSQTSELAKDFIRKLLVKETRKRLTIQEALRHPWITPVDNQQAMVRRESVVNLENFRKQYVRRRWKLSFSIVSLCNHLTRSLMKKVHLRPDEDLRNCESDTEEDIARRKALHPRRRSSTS
Sequence of CAMK1G, construct: aa4-312, human (Q96NX5 4-312, looked up): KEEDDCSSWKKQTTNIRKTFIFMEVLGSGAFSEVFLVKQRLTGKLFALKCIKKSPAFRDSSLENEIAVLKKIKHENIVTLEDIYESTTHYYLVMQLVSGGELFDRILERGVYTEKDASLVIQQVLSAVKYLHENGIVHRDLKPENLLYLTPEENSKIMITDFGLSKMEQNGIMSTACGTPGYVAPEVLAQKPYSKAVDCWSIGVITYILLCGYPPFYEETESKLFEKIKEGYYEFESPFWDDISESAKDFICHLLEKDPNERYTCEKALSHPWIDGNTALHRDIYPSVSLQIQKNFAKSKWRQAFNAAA

CAMK1G, construct: aa4-312, human (from UniProt Q96NX5)
relative phosphorylation
Conditions | at +1 | at +2 | at +3 | at +4 | at -1 | at -2 | at -3 | at -4 | at -5
A fixed | 0.642 | 0.76 | 0.621 | 0.551 | 0.799 | 0.862 | 0.549 | 0.716 | 0.628
D fixed | 0.415 | 0.664 | 0.754 | 0.687 | 0.868 | 0.426 | 0.285 | 0.428 | 0.451
E fixed | 0.379 | 0.584 | 0.709 | 0.651 | 0.562 | 0.421 | 0.274 | 0.548 | 0.424
F fixed | 2.19 | 0.959 | 1.5 | 1.69 | 0.634 | 0.743 | 0.545 | 0.916 | 1.01
G fixed | 0.693 | 0.541 | 0.763 | 0.665 | 0.98 | 0.927 | 0.395 | 0.754 | 0.628
H fixed | 0.691 | 1.37 | 1.2 | 0.846 | 0.991 | 0.867 | 0.602 | 1.08 | 0.879
I fixed | 0.442 | 1.1 | 0.904 | 1.09 | 0.554 | 0.413 | 0.413 | 0.913 | 1.26
K fixed | 2.37 | 1.51 | 1.22 | 1.02 | 2.43 | 1.64 | 1.95 | 2.49 | 1.38
L fixed | 0.51 | 1.09 | 1.08 | 1.99 | 0.684 | 0.554 | 0.506 | 0.979 | 2.03
M fixed | 0.931 | 0.968 | 1.01 | 1.43 | 0.723 | 1.02 | 0.68 | 0.936 | 1.29
N fixed | 0.894 | 1.18 | 1.41 | 0.972 | 1.71 | 1.03 | 0.48 | 0.833 | 0.656
P fixed | 0.305 | 0.403 | 0.435 | 0.747 | 1.17 | 0.386 | 0.343 | 0.496 | 0.933
Q fixed | 1.27 | 0.908 | 0.969 | 0.986 | 1.05 | 2.24 | 0.777 | 0.936 | 0.84
R fixed | 3.15 | 1.78 | 1.53 | 1.1 | 1.97 | 3.14 | 7.64 | 2.06 | 2.08
V fixed | 0.463 | 0.892 | 0.642 | 0.67 | 0.675 | 0.483 | 0.366 | 0.754 | 0.818
W fixed | 0.896 | 1.08 | 1.28 | 1.05 | 0.575 | 1.13 | 0.617 | 1.17 | 0.692
Y fixed | 0.756 | 1.22 | 0.981 | 0.856 | 0.63 | 0.712 | 0.581 | 0.991 | 0.982
pThr fixed | 0.933 | 1.57 | 0.938 | 1.1 | 0.856 | 0.667 | 0.447 | 0.759 | 0.579
pTyr fixed | 0.717 | 4.89 | 1.31 | 0.992 | 0.749 | 0.652 | 0.486 | 0.704 | 0.774

CDK2, construct: Full length, human (from UniProt P24941)
relative phosphorylation
Conditions | at +1 | at +2 | at +3 | at +4 | at -1 | at -2 | at -3 | at -4 | at -5
A fixed | 0.422 | 0.748 | 0.457 | 0.579 | 0.947 | 0.875 | 1.06 | 1.02 | 1.03
D fixed | 0.304 | 0.611 | 0.279 | 0.735 | 1.08 | 0.754 | 0.692 | 1.01 | 1.09
E fixed | 0.304 | 0.544 | 0.265 | 0.591 | 0.846 | 0.701 | 0.887 | 1.08 | 0.998
F fixed | 0.365 | 0.976 | 0.438 | 0.837 | 1.1 | 1.29 | 0.928 | 1.08 | 1.01
G fixed | 0.923 | 0.664 | 0.497 | 1.13 | 1.39 | 0.891 | 1.6 | 1.03 | 0.824
H fixed | 0.367 | 1.28 | 0.871 | 1.04 | 0.879 | 1.21 | 1.3 | 1.21 | 1.17
I fixed | 0.409 | 0.781 | 0.325 | 0.92 | 0.428 | 0.804 | 0.877 | 0.911 | 0.684
K fixed | 0.439 | 1.91 | 8.59 | 1.62 | 1.01 | 0.798 | 0.839 | 1.02 | 1.17
L fixed | 0.384 | 0.947 | 0.358 | 1.12 | 1.02 | 1.27 | 0.88 | 0.911 | 0.787
M fixed | 0.407 | 1.09 | 0.405 | 1.3 | 1.02 | 1.27 | 0.895 | 0.814 | 0.8
N fixed | 0.402 | 1.08 | 0.524 | 1.06 | 1.01 | 0.963 | 0.91 | 0.888 | 0.813
P fixed | 10.1 | 0.384 | 0.626 | 0.731 | 0.7 | 1.3 | 0.804 | 0.589 | 1.1
Q fixed | 0.499 | 1.47 | 0.665 | 1.17 | 1.37 | 1.09 | 1.18 | 1.18 | 1.13
R fixed | 0.494 | 1.94 | 1.49 | 0.939 | 1.3 | 0.684 | 0.88 | 0.829 | 1.06
V fixed | 0.516 | 1.08 | 0.392 | 0.977 | 0.643 | 0.892 | 1.04 | 0.907 | 1
W fixed | 0.326 | 0.667 | 0.429 | 1.32 | 1.34 | 1.19 | 1.2 | 1.4 | 1.13
Y fixed | 0.33 | 0.82 | 0.393 | 0.935 | 0.92 | 1.01 | 1.03 | 1.1 | 1.19
pThr fixed | 1.22 | 0.953 | 1.31 | 0.611 | 0.373 | 0.917 | 1.01 | 0.787 | 0.965
pTyr fixed | 2.21 | 0.603 | 1.1 | 0.825 | 0.766 | 1.63 | 1.13 | 0.938 | 0.898

DAPK2, construct: Full length, human (from UniProt Q9UIK4)
relative phosphorylation
Conditions | at +1 | at +2 | at +3 | at +4 | at -1 | at -2 | at -3 | at -4 | at -5
A fixed | 0.947 | 0.886 | 0.931 | 0.893 | 0.907 | 1.2 | 0.902 | 1.03 | 1.03
D fixed | 1.24 | 0.825 | 0.801 | 0.816 | 0.878 | 0.624 | 0.608 | 0.797 | 0.77
E fixed | 1.3 | 0.846 | 0.813 | 0.758 | 0.71 | 0.591 | 0.558 | 0.795 | 0.703
F fixed | 0.985 | 1.1 | 0.998 | 1.22 | 0.902 | 0.704 | 0.778 | 1.03 | 1.02
G fixed | 1.02 | 0.895 | 1.01 | 0.933 | 0.983 | 0.869 | 0.846 | 1.02 | 1.08
H fixed | 0.861 | 0.962 | 0.951 | 1.22 | 0.992 | 1.08 | 0.869 | 0.967 | 0.926
I fixed | 0.909 | 1.02 | 1.6 | 1.02 | 0.854 | 0.645 | 0.697 | 0.888 | 0.955
K fixed | 0.739 | 0.891 | 0.842 | 0.837 | 1.22 | 1.23 | 1.59 | 1.12 | 1.09
L fixed | 0.863 | 1.34 | 1.27 | 0.995 | 1.2 | 0.725 | 0.754 | 0.949 | 1.06
M fixed | 1.04 | 1.34 | 0.968 | 0.882 | 1.03 | 0.739 | 0.758 | 0.964 | 0.99
N fixed | 1.25 | 0.913 | 0.852 | 0.912 | 1.25 | 0.855 | 0.666 | 0.97 | 0.839
P fixed | 0.736 | 1.04 | 0.983 | 1.09 | 1.11 | 0.775 | 0.881 | 1.04 | 1.08
Q fixed | 1.77 | 0.983 | 0.878 | 0.927 | 0.995 | 0.838 | 0.716 | 0.915 | 0.869
R fixed | 0.838 | 1.05 | 1 | 0.958 | 1.21 | 3.71 | 3.95 | 1.45 | 1.47
V fixed | 0.91 | 0.948 | 1.15 | 0.973 | 0.916 | 0.688 | 0.674 | 0.894 | 0.92
W fixed | 0.79 | 0.943 | 1 | 1.39 | 0.856 | 0.961 | 0.898 | 1.06 | 0.98
Y fixed | 0.797 | 1.02 | 0.948 | 1.18 | 0.994 | 0.765 | 0.861 | 1.11 | 1.23
pThr fixed | 1.74 | 1.06 | 0.929 | 0.994 | 0.74 | 0.649 | 0.685 | 0.818 | 0.831
pTyr fixed | 1.15 | 1.02 | 1.16 | 1.04 | 0.969 | 0.696 | 0.682 | 0.811 | 0.827

DYRK4, construct: Full length, human (from UniProt Q9NR20)
relative phosphorylation
Conditions | at +1 | at +2 | at +3 | at +4 | at -1 | at -2 | at -3 | at -4 | at -5
A fixed | 0.514 | 0.92 | 0.735 | 0.738 | 1.25 | 2.4 | 1.05 | 1.07 | 0.995
D fixed | 0.171 | 2.1 | 1.07 | 1.49 | 0.773 | 0.283 | 0.554 | 0.801 | 0.827
E fixed | 0.189 | 1.81 | 0.985 | 1.28 | 0.959 | 0.27 | 0.54 | 0.85 | 0.807
F fixed | 0.166 | 1.03 | 0.935 | 1.27 | 0.671 | 0.366 | 0.464 | 0.725 | 1.09
G fixed | 0.614 | 0.629 | 1.3 | 1.06 | 1.28 | 0.977 | 1.29 | 1.13 | 1.1
H fixed | 0.173 | 1.09 | 0.909 | 1.03 | 0.925 | 0.493 | 0.88 | 0.961 | 1.11
I fixed | 0.268 | 1.35 | 0.696 | 1.09 | 0.73 | 0.781 | 0.491 | 0.939 | 0.9
K fixed | 0.228 | 0.317 | 0.428 | 0.543 | 0.87 | 0.421 | 0.796 | 0.857 | 0.922
L fixed | 0.202 | 1.18 | 1.42 | 0.967 | 0.832 | 0.871 | 0.624 | 0.893 | 0.825
M fixed | 0.21 | 1.23 | 1.12 | 1.19 | 1.16 | 0.844 | 0.647 | 0.888 | 0.78
N fixed | 0.2 | 0.738 | 0.825 | 0.866 | 0.847 | 0.907 | 0.728 | 0.719 | 0.882
P fixed | 12 | 0.629 | 3.2 | 0.896 | 1.71 | 2.89 | 1.05 | 1.3 | 1.02
Q fixed | 0.266 | 0.783 | 0.882 | 0.958 | 0.962 | 0.629 | 0.805 | 0.916 | 1.04
R fixed | 0.93 | 0.367 | 0.554 | 0.672 | 1.41 | 3.18 | 5.51 | 2.49 | 1.98
V fixed | 0.578 | 1.07 | 0.637 | 0.87 | 0.963 | 1.02 | 0.478 | 0.731 | 0.792
W fixed | 0.163 | 0.909 | 0.726 | 1.16 | 0.595 | 0.321 | 0.533 | 0.875 | 0.656
Y fixed | 0.161 | 0.843 | 0.569 | 0.919 | 1.06 | 0.354 | 0.556 | 0.863 | 1.28
pThr fixed | 0.375 | 4.81 | 0.992 | 1.93 | 0.506 | 0.647 | 0.592 | 0.868 | 0.978
pTyr fixed | 0.365 | 3.13 | 1.37 | 2.35 | 1.04 | 0.383 | 0.698 | 0.896 | 1.44
